B1: HEEH_KT_rd6_0007 (parent)
chain: SIEEEIKKAEEAKEKGKTFIHGDFVATTEELLDELLKRLRKKL
B2: EHEE_rd2_0191 (parent)
chain: TTEYTFTDDEEARRAIEELKKRGLTFRYEKHGTTWRVRVD

Variants of: B1
Experiment: folding stability dG (cDNA display proteolysis); higher = more stable
Settings: PBS, room temperature

Variant | folding stability dG [kcal/mol]
SIEEEIKKAEEAKEKGKTFIHGDFVATTEELLDELLKRLRKDL [K42D] | 0.935
SIEEEIKKAEEAKEKGKTFIHGDFVATTEELLDELLKRLRKEL [K42E] | 1.23
SIEEEIKKAEEAKEKGKTFIHGDFVATTEELLDELLKRLRKFL [K42F] | 1.38
SIEEEIKKAEEAKEKGKTFIHGDFVATTEELLDELLKRLRKGL [K42G] | 0.621
SIEEEIKKAEEAKEKGKTFIHGDFVATTEELLDELLKRLRKHL [K42H] | 1.1
SIEEEIKKAEEAKEKGKTFIHGDFVATTEELLDELLKRLRKIL [K42I] | 1.59
SIEEEIKKAEEAKEKGKTFIHGDFVATTEELLDELLKRLRKLL [K42L] | 1.82
SIEEEIKKAEEAKEKGKTFIHGDFVATTEELLDELLKRLRKML [K42M] | 1.74
SIEEEIKKAEEAKEKGKTFIHGDFVATTEELLDELLKRLRKNL [K42N] | 0.7
SIEEEIKKAEEAKEKGKTFIHGDFVATTEELLDELLKRLRKPL [K42P] | 0.483
SIEEEIKKAEEAKEKGKTFIHGDFVATTEELLDELLKRLRKQL [K42Q] | 1.42
SIEEEIKKAEEAKEKGKTFIHGDFVATTEELLDELLKRLRKRL [K42R] | 1.34
SIEEEIKKAEEAKEKGKTFIHGDFVATTEELLDELLKRLRKSL [K42S] | 1.13
SIEEEIKKAEEAKEKGKTFIHGDFVATTEELLDELLKRLRKTL [K42T] | 1.19
SIEEEIKKAEEAKEKGKTFIHGDFVATTEELLDELLKRLRKVL [K42V] | 1.23
SIEEEIKKAEEAKEKGKTFIHGDFVATTEELLDELLKRLRKWL [K42W] | 1.83
SIEEEIKKAEEAKEKGKTFIHGDFVATTEELLDELLKRLRKYL [K42Y] | 1.5
SIEEEIKKAEEAKEKGKTFIHGDFVATTEELLDELLKRLRKKA [L43A] | 0.591

Variant | folding stability dG [kcal/mol]
SIEEEIKKAEEAKEKGKTFIHGDFVATTEELLDELLKRLRKKC [L43C] | 1.31
SIEEEIKKAEEAKEKGKTFIHGDFVATTEELLDELLKRLRKKD [L43D] | 0.207
SIEEEIKKAEEAKEKGKTFIHGDFVATTEELLDELLKRLRKKE [L43E] | 0.224
SIEEEIKKAEEAKEKGKTFIHGDFVATTEELLDELLKRLRKKF [L43F] | 1.05
SIEEEIKKAEEAKEKGKTFIHGDFVATTEELLDELLKRLRKKG [L43G] | 0.444
SIEEEIKKAEEAKEKGKTFIHGDFVATTEELLDELLKRLRKKH [L43H] | 0.788
SIEEEIKKAEEAKEKGKTFIHGDFVATTEELLDELLKRLRKKI [L43I] | 0.768
SIEEEIKKAEEAKEKGKTFIHGDFVATTEELLDELLKRLRKKK [L43K] | 0.822
SIEEEIKKAEEAKEKGKTFIHGDFVATTEELLDELLKRLRKKM [L43M] | 0.858
SIEEEIKKAEEAKEKGKTFIHGDFVATTEELLDELLKRLRKKN [L43N] | 0.566
SIEEEIKKAEEAKEKGKTFIHGDFVATTEELLDELLKRLRKKP [L43P] | 0.431
SIEEEIKKAEEAKEKGKTFIHGDFVATTEELLDELLKRLRKKQ [L43Q] | 0.837
SIEEEIKKAEEAKEKGKTFIHGDFVATTEELLDELLKRLRKKR [L43R] | 1.14
SIEEEIKKAEEAKEKGKTFIHGDFVATTEELLDELLKRLRKKS [L43S] | 0.524
SIEEEIKKAEEAKEKGKTFIHGDFVATTEELLDELLKRLRKKT [L43T] | 0.533
SIEEEIKKAEEAKEKGKTFIHGDFVATTEELLDELLKRLRKKV [L43V] | 0.562
SIEEEIKKAEEAKEKGKTFIHGDFVATTEELLDELLKRLRKKW [L43W] | 1.06
SIEEEIKKAEEAKEKGKTFIHGDFVATTEELLDELLKRLRKKY [L43Y] | 0.992

Variants of: B2
Experiment: as above
Settings: PBS, room temperature

Variant | folding stability dG [kcal/mol]
ATEYTFTDDEEARRAIEELKKRGLTFRYEKHGTTWRVRVD [T1A] | 2.06
DTEYTFTDDEEARRAIEELKKRGLTFRYEKHGTTWRVRVD [T1D] | 1.75
ETEYTFTDDEEARRAIEELKKRGLTFRYEKHGTTWRVRVD [T1E] | 1.93
FTEYTFTDDEEARRAIEELKKRGLTFRYEKHGTTWRVRVD [T1F] | 2.69
GTEYTFTDDEEARRAIEELKKRGLTFRYEKHGTTWRVRVD [T1G] | 1.95
HTEYTFTDDEEARRAIEELKKRGLTFRYEKHGTTWRVRVD [T1H] | 2.1
ITEYTFTDDEEARRAIEELKKRGLTFRYEKHGTTWRVRVD [T1I] | 2.44
KTEYTFTDDEEARRAIEELKKRGLTFRYEKHGTTWRVRVD [T1K] | 1.78
LTEYTFTDDEEARRAIEELKKRGLTFRYEKHGTTWRVRVD [T1L] | 2
MTEYTFTDDEEARRAIEELKKRGLTFRYEKHGTTWRVRVD [T1M] | 2.21
NTEYTFTDDEEARRAIEELKKRGLTFRYEKHGTTWRVRVD [T1N] | 1.62
PTEYTFTDDEEARRAIEELKKRGLTFRYEKHGTTWRVRVD [T1P] | 2.15
QTEYTFTDDEEARRAIEELKKRGLTFRYEKHGTTWRVRVD [T1Q] | 2.04
RTEYTFTDDEEARRAIEELKKRGLTFRYEKHGTTWRVRVD [T1R] | 1.87
STEYTFTDDEEARRAIEELKKRGLTFRYEKHGTTWRVRVD [T1S] | 2.05
VTEYTFTDDEEARRAIEELKKRGLTFRYEKHGTTWRVRVD [T1V] | 2.44
WTEYTFTDDEEARRAIEELKKRGLTFRYEKHGTTWRVRVD [T1W] | 3.2
YTEYTFTDDEEARRAIEELKKRGLTFRYEKHGTTWRVRVD [T1Y] | 2.93
TAEYTFTDDEEARRAIEELKKRGLTFRYEKHGTTWRVRVD [T2A] | 1.82
TCEYTFTDDEEARRAIEELKKRGLTFRYEKHGTTWRVRVD [T2C] | 2.9
TDEYTFTDDEEARRAIEELKKRGLTFRYEKHGTTWRVRVD [T2D] | 1.35
TEEYTFTDDEEARRAIEELKKRGLTFRYEKHGTTWRVRVD [T2E] | 1.76

Variant | folding stability dG [kcal/mol]
TFEYTFTDDEEARRAIEELKKRGLTFRYEKHGTTWRVRVD [T2F] | 2.33
TGEYTFTDDEEARRAIEELKKRGLTFRYEKHGTTWRVRVD [T2G] | 1.42
THEYTFTDDEEARRAIEELKKRGLTFRYEKHGTTWRVRVD [T2H] | 2.08
TIEYTFTDDEEARRAIEELKKRGLTFRYEKHGTTWRVRVD [T2I] | 2.5
TKEYTFTDDEEARRAIEELKKRGLTFRYEKHGTTWRVRVD [T2K] | 2.01
TLEYTFTDDEEARRAIEELKKRGLTFRYEKHGTTWRVRVD [T2L] | 2.3
TMEYTFTDDEEARRAIEELKKRGLTFRYEKHGTTWRVRVD [T2M] | 2.2
TNEYTFTDDEEARRAIEELKKRGLTFRYEKHGTTWRVRVD [T2N] | 1.58
TPEYTFTDDEEARRAIEELKKRGLTFRYEKHGTTWRVRVD [T2P] | 0.931
TQEYTFTDDEEARRAIEELKKRGLTFRYEKHGTTWRVRVD [T2Q] | 2
TREYTFTDDEEARRAIEELKKRGLTFRYEKHGTTWRVRVD [T2R] | 2.27
TSEYTFTDDEEARRAIEELKKRGLTFRYEKHGTTWRVRVD [T2S] | 1.68
TVEYTFTDDEEARRAIEELKKRGLTFRYEKHGTTWRVRVD [T2V] | 2.4
TWEYTFTDDEEARRAIEELKKRGLTFRYEKHGTTWRVRVD [T2W] | 2.62
TYEYTFTDDEEARRAIEELKKRGLTFRYEKHGTTWRVRVD [T2Y] | 2.41
TTAYTFTDDEEARRAIEELKKRGLTFRYEKHGTTWRVRVD [E3A] | 1.12
TTCYTFTDDEEARRAIEELKKRGLTFRYEKHGTTWRVRVD [E3C] | 2.81
TTDYTFTDDEEARRAIEELKKRGLTFRYEKHGTTWRVRVD [E3D] | 1.58
TTFYTFTDDEEARRAIEELKKRGLTFRYEKHGTTWRVRVD [E3F] | 2.44
TTGYTFTDDEEARRAIEELKKRGLTFRYEKHGTTWRVRVD [E3G] | 0.724
TTHYTFTDDEEARRAIEELKKRGLTFRYEKHGTTWRVRVD [E3H] | 1.73
TTIYTFTDDEEARRAIEELKKRGLTFRYEKHGTTWRVRVD [E3I] | 2.52

Variant | folding stability dG [kcal/mol]
TTKYTFTDDEEARRAIEELKKRGLTFRYEKHGTTWRVRVD [E3K] | 0.77
TTLYTFTDDEEARRAIEELKKRGLTFRYEKHGTTWRVRVD [E3L] | 2.25
TTMYTFTDDEEARRAIEELKKRGLTFRYEKHGTTWRVRVD [E3M] | 2.14
TTNYTFTDDEEARRAIEELKKRGLTFRYEKHGTTWRVRVD [E3N] | 1.39
TTPYTFTDDEEARRAIEELKKRGLTFRYEKHGTTWRVRVD [E3P] | 0.266
TTQYTFTDDEEARRAIEELKKRGLTFRYEKHGTTWRVRVD [E3Q] | 1.47
TTRYTFTDDEEARRAIEELKKRGLTFRYEKHGTTWRVRVD [E3R] | 1.12
TTSYTFTDDEEARRAIEELKKRGLTFRYEKHGTTWRVRVD [E3S] | 1.55
TTTYTFTDDEEARRAIEELKKRGLTFRYEKHGTTWRVRVD [E3T] | 2.31
TTVYTFTDDEEARRAIEELKKRGLTFRYEKHGTTWRVRVD [E3V] | 2.56
TTWYTFTDDEEARRAIEELKKRGLTFRYEKHGTTWRVRVD [E3W] | 3.02
TTYYTFTDDEEARRAIEELKKRGLTFRYEKHGTTWRVRVD [E3Y] | 2.62
TTEATFTDDEEARRAIEELKKRGLTFRYEKHGTTWRVRVD [Y4A] | 0.059
TTECTFTDDEEARRAIEELKKRGLTFRYEKHGTTWRVRVD [Y4C] | 2.79
TTEETFTDDEEARRAIEELKKRGLTFRYEKHGTTWRVRVD [Y4E] | -0.036
TTEFTFTDDEEARRAIEELKKRGLTFRYEKHGTTWRVRVD [Y4F] | 1.99
TTEHTFTDDEEARRAIEELKKRGLTFRYEKHGTTWRVRVD [Y4H] | 0.788
TTEITFTDDEEARRAIEELKKRGLTFRYEKHGTTWRVRVD [Y4I] | 1.44
TTEKTFTDDEEARRAIEELKKRGLTFRYEKHGTTWRVRVD [Y4K] | 0.122
TTELTFTDDEEARRAIEELKKRGLTFRYEKHGTTWRVRVD [Y4L] | 1.93
TTEMTFTDDEEARRAIEELKKRGLTFRYEKHGTTWRVRVD [Y4M] | 1.79
TTENTFTDDEEARRAIEELKKRGLTFRYEKHGTTWRVRVD [Y4N] | -0.571

Variant | folding stability dG [kcal/mol]
TTEQTFTDDEEARRAIEELKKRGLTFRYEKHGTTWRVRVD [Y4Q] | 0.601
TTERTFTDDEEARRAIEELKKRGLTFRYEKHGTTWRVRVD [Y4R] | 0.382
TTESTFTDDEEARRAIEELKKRGLTFRYEKHGTTWRVRVD [Y4S] | 0.036
TTETTFTDDEEARRAIEELKKRGLTFRYEKHGTTWRVRVD [Y4T] | 0.315
TTEVTFTDDEEARRAIEELKKRGLTFRYEKHGTTWRVRVD [Y4V] | 0.805
TTEWTFTDDEEARRAIEELKKRGLTFRYEKHGTTWRVRVD [Y4W] | 2.22
TTEYAFTDDEEARRAIEELKKRGLTFRYEKHGTTWRVRVD [T5A] | 1.23
TTEYCFTDDEEARRAIEELKKRGLTFRYEKHGTTWRVRVD [T5C] | 2.33
TTEYDFTDDEEARRAIEELKKRGLTFRYEKHGTTWRVRVD [T5D] | 0.819
TTEYEFTDDEEARRAIEELKKRGLTFRYEKHGTTWRVRVD [T5E] | 1.79
TTEYFFTDDEEARRAIEELKKRGLTFRYEKHGTTWRVRVD [T5F] | 2.51
TTEYGFTDDEEARRAIEELKKRGLTFRYEKHGTTWRVRVD [T5G] | 0.086
TTEYHFTDDEEARRAIEELKKRGLTFRYEKHGTTWRVRVD [T5H] | 1.67
TTEYIFTDDEEARRAIEELKKRGLTFRYEKHGTTWRVRVD [T5I] | 2.71
TTEYKFTDDEEARRAIEELKKRGLTFRYEKHGTTWRVRVD [T5K] | 1.3
TTEYLFTDDEEARRAIEELKKRGLTFRYEKHGTTWRVRVD [T5L] | 2.25
TTEYMFTDDEEARRAIEELKKRGLTFRYEKHGTTWRVRVD [T5M] | 1.95
TTEYNFTDDEEARRAIEELKKRGLTFRYEKHGTTWRVRVD [T5N] | 1.36
TTEYQFTDDEEARRAIEELKKRGLTFRYEKHGTTWRVRVD [T5Q] | 1.64
TTEYRFTDDEEARRAIEELKKRGLTFRYEKHGTTWRVRVD [T5R] | 1.64
TTEYSFTDDEEARRAIEELKKRGLTFRYEKHGTTWRVRVD [T5S] | 1.49

From the MegaScale stability set (Tsuboyama et al. 2023)
